Legend:
VEGF [1] = molecular target: T1, VEGF (UniProt P15692-9 27-147); experiment: bridging ELISA of exchange reaction mix: capture VEGF, detection biocytinamid-Cy5; signal needs both specificities; highest value = 100%, input 1.3 µM
T1 construct: also called VEGF121
T1 sequence (looked up): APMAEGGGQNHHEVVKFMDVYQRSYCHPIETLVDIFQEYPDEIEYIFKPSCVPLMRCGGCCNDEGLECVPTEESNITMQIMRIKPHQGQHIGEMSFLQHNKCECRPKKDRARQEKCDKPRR

VEGF [2] = molecular target: T1, VEGF; experiment: bridging ELISA of exchange reaction mix: capture VEGF, detection digoxygenin-Cy5; signal needs both specificities; highest value = 100%, input 1.3 µM
VEGF [3] = molecular target: T1, VEGF; experiment: bridging ELISA, capture VEGF, detection biocytinamid-Cy5 or digoxygenin-Cy5

B1: bsAb from exchange reaction between anti-dig 2/3-IgG (MHCFcRP-knob-E357K) and anti-PDGF 2/3-IgG (MHCFcRP-hole-K370E) (bispecific antibody, not shown: small tags and cut ends)
heavy 1: QVQLVESGGGLVKPGGSLRLSCAASGFTFSDYAMSWIRQAPGKGLEWVSSINIGATYIYYADSVKGRFTISRDNAKNSLYLQMNSLRAEDTAVYYCARPGSPYEYDKAYYSMAYWGQGTTVTVSSASTKGPSVFPLAPSSKSTSGGTAALGCLVKDYFPEPVTVSWNSGALTSGVHTFPAVLQSSGLYSLSSVVTVPSSSLGTQTYICNVNHKPSNTKVDKKVEPKSC
light 1: not shown
heavy 2: EVQLVESGGGLVQPGGSLRLSCAASGFTFSSYWMSWVRQAPEKGLEWVSTISDGGGLTYYADSVKGRFTISRDNAKNSLYLQMNSLRAEDTAVYYCAESGGYTDWLFGYWGQGTLVTVSSASTKGPSVFPLAPSSKSTSGGTAALGCLVKDYFPEPVTVSWNSGALTSGVHTFPAVLQSSGLYSLSSVVTVPSSSLGTQTYICNVNHKPSNTKVDKKVEPKSC
light 2: not shown
notes: Exchange product as applied in the reaction mix; also called dig PDGF
VEGF [1]
  relative signal intensity: 9.9%
VEGF [2]
  relative signal intensity: 7%
VEGF [3]
  binding result: no binding (tested: 1.3 µM input molecule concentration)

B2: bsAb from exchange reaction between anti-PDGF 2/3-IgG (MHCFcRP-knob-E357K) and anti-dig 2/3-IgG (MHCFcRP-hole-K370E) (bispecific antibody, not shown: small tags and cut ends)
heavy 1: EVQLVESGGGLVQPGGSLRLSCAASGFTFSSYWMSWVRQAPEKGLEWVSTISDGGGLTYYADSVKGRFTISRDNAKNSLYLQMNSLRAEDTAVYYCAESGGYTDWLFGYWGQGTLVTVSSASTKGPSVFPLAPSSKSTSGGTAALGCLVKDYFPEPVTVSWNSGALTSGVHTFPAVLQSSGLYSLSSVVTVPSSSLGTQTYICNVNHKPSNTKVDKKVEPKSC
light 1: not shown
heavy 2: QVQLVESGGGLVKPGGSLRLSCAASGFTFSDYAMSWIRQAPGKGLEWVSSINIGATYIYYADSVKGRFTISRDNAKNSLYLQMNSLRAEDTAVYYCARPGSPYEYDKAYYSMAYWGQGTTVTVSSASTKGPSVFPLAPSSKSTSGGTAALGCLVKDYFPEPVTVSWNSGALTSGVHTFPAVLQSSGLYSLSSVVTVPSSSLGTQTYICNVNHKPSNTKVDKKVEPKSC
light 2: not shown
notes: Exchange product as applied in the reaction mix; also called PDGF dig
VEGF [1]
  relative signal intensity: 9.2%
VEGF [2]
  relative signal intensity: 5.9%
VEGF [3]
  binding result: no binding (tested: 1.3 µM input molecule concentration)

B3: bsAb from exchange reaction between anti-bio 2/3-IgG (MHCFcRP-knob-E357K) and anti-fluos 2/3-IgG (MHCFcRP-hole-K370E) (bispecific antibody)
heavy 1: not shown
light 1: DIQMTQSPSSLSASVGDRVTITCRASGNIHNYLSWYQQKPGKVPKLLIYSAKTLADGVPSRFSGSGSGTDFTLTISSLQPEDVATYYCQHFWSSIYTFGQGTKLEIKRTVAAPSVFIFPPSDEQLKSGTASVVCLLNNFYPREAKVQWKVDNALQSGNSQESVTEQDSKDSTYSLSSTLTLSKADYEKHKVYACEVTHQGLSSPVTKSFNRGEC
heavy 2: not shown
light 2: DIVMTQTPLSLSVTPGQPASISCKSSQSLVHSNGNTYLRWYLQKPGQSPKVLIYKVSNRVSGVPDRFSGSGSGTDFTLKISRVEAEDVGVYYCSQSTHVPWTFGQGTKLEIKRTVAAPSVFIFPPSDEQLKSGTASVVCLLNNFYPREAKVQWKVDNALQSGNSQESVTEQDSKDSTYSLSSTLTLSKADYEKHKVYACEVTHQGLSSPVTKSFNRGEC
notes: Exchange product as applied in the reaction mix; also called bio fluos
VEGF [1]
  relative signal intensity: 9%
VEGF [2]
  relative signal intensity: 7.2%
VEGF [3]
  binding result: no binding (tested: 1.3 µM input molecule concentration)

B4: bsAb from exchange reaction between anti-bio 2/3-IgG (MHCFcRP-knob-E357K) and anti-dig 2/3-IgG (MHCFcRP-hole-K370E) (bispecific antibody, not shown: small tags and cut ends)
heavy 1: not shown
light 1: DIQMTQSPSSLSASVGDRVTITCRASGNIHNYLSWYQQKPGKVPKLLIYSAKTLADGVPSRFSGSGSGTDFTLTISSLQPEDVATYYCQHFWSSIYTFGQGTKLEIKRTVAAPSVFIFPPSDEQLKSGTASVVCLLNNFYPREAKVQWKVDNALQSGNSQESVTEQDSKDSTYSLSSTLTLSKADYEKHKVYACEVTHQGLSSPVTKSFNRGEC
heavy 2: QVQLVESGGGLVKPGGSLRLSCAASGFTFSDYAMSWIRQAPGKGLEWVSSINIGATYIYYADSVKGRFTISRDNAKNSLYLQMNSLRAEDTAVYYCARPGSPYEYDKAYYSMAYWGQGTTVTVSSASTKGPSVFPLAPSSKSTSGGTAALGCLVKDYFPEPVTVSWNSGALTSGVHTFPAVLQSSGLYSLSSVVTVPSSSLGTQTYICNVNHKPSNTKVDKKVEPKSC
light 2: not shown
notes: Exchange product as applied in the reaction mix; also called bio dig
VEGF [1]
  relative signal intensity: 9.3%
VEGF [2]
  relative signal intensity: 6.2%
VEGF [3]
  binding result: no binding (tested: 1.3 µM input molecule concentration)

B5: bsAb from exchange reaction between anti-dig 2/3-IgG (MHCFcRP-knob-E357K) and anti-fluos 2/3-IgG (MHCFcRP-hole-K370E) (bispecific antibody, not shown: small tags and cut ends)
heavy 1: QVQLVESGGGLVKPGGSLRLSCAASGFTFSDYAMSWIRQAPGKGLEWVSSINIGATYIYYADSVKGRFTISRDNAKNSLYLQMNSLRAEDTAVYYCARPGSPYEYDKAYYSMAYWGQGTTVTVSSASTKGPSVFPLAPSSKSTSGGTAALGCLVKDYFPEPVTVSWNSGALTSGVHTFPAVLQSSGLYSLSSVVTVPSSSLGTQTYICNVNHKPSNTKVDKKVEPKSC
light 1: not shown
heavy 2: not shown
light 2: DIVMTQTPLSLSVTPGQPASISCKSSQSLVHSNGNTYLRWYLQKPGQSPKVLIYKVSNRVSGVPDRFSGSGSGTDFTLKISRVEAEDVGVYYCSQSTHVPWTFGQGTKLEIKRTVAAPSVFIFPPSDEQLKSGTASVVCLLNNFYPREAKVQWKVDNALQSGNSQESVTEQDSKDSTYSLSSTLTLSKADYEKHKVYACEVTHQGLSSPVTKSFNRGEC
notes: Exchange product as applied in the reaction mix; also called dig fluos
VEGF [1]
  relative signal intensity: 9.1%
VEGF [2]
  relative signal intensity: 6.7%
VEGF [3]
  binding result: no binding (tested: 1.3 µM input molecule concentration)

B6: bsAb from exchange reaction between anti-bio 2/3-IgG (MHCFcRP-knob-E357K) and anti-PDGF 2/3-IgG (MHCFcRP-hole-K370E) (bispecific antibody, not shown: small tags and cut ends)
heavy 1: not shown
light 1: DIQMTQSPSSLSASVGDRVTITCRASGNIHNYLSWYQQKPGKVPKLLIYSAKTLADGVPSRFSGSGSGTDFTLTISSLQPEDVATYYCQHFWSSIYTFGQGTKLEIKRTVAAPSVFIFPPSDEQLKSGTASVVCLLNNFYPREAKVQWKVDNALQSGNSQESVTEQDSKDSTYSLSSTLTLSKADYEKHKVYACEVTHQGLSSPVTKSFNRGEC
heavy 2: EVQLVESGGGLVQPGGSLRLSCAASGFTFSSYWMSWVRQAPEKGLEWVSTISDGGGLTYYADSVKGRFTISRDNAKNSLYLQMNSLRAEDTAVYYCAESGGYTDWLFGYWGQGTLVTVSSASTKGPSVFPLAPSSKSTSGGTAALGCLVKDYFPEPVTVSWNSGALTSGVHTFPAVLQSSGLYSLSSVVTVPSSSLGTQTYICNVNHKPSNTKVDKKVEPKSC
light 2: not shown
notes: Exchange product as applied in the reaction mix; also called bio PDGF
VEGF [1]
  relative signal intensity: 10.1%
VEGF [2]
  relative signal intensity: 6.1%
VEGF [3]
  binding result: no binding (tested: 1.3 µM input molecule concentration)

B7: bsAb from exchange reaction between anti-dig 2/3-IgG (MHCFcRP-knob-E357K) and anti-bio 2/3-IgG (MHCFcRP-hole-K370E) (bispecific antibody, not shown: small tags and cut ends)
heavy 1: QVQLVESGGGLVKPGGSLRLSCAASGFTFSDYAMSWIRQAPGKGLEWVSSINIGATYIYYADSVKGRFTISRDNAKNSLYLQMNSLRAEDTAVYYCARPGSPYEYDKAYYSMAYWGQGTTVTVSSASTKGPSVFPLAPSSKSTSGGTAALGCLVKDYFPEPVTVSWNSGALTSGVHTFPAVLQSSGLYSLSSVVTVPSSSLGTQTYICNVNHKPSNTKVDKKVEPKSC
light 1: not shown
heavy 2: not shown
light 2: DIQMTQSPSSLSASVGDRVTITCRASGNIHNYLSWYQQKPGKVPKLLIYSAKTLADGVPSRFSGSGSGTDFTLTISSLQPEDVATYYCQHFWSSIYTFGQGTKLEIKRTVAAPSVFIFPPSDEQLKSGTASVVCLLNNFYPREAKVQWKVDNALQSGNSQESVTEQDSKDSTYSLSSTLTLSKADYEKHKVYACEVTHQGLSSPVTKSFNRGEC
notes: Exchange product as applied in the reaction mix; also called dig bio
VEGF [1]
  relative signal intensity: 9%
VEGF [2]
  relative signal intensity: 6.2%
VEGF [3]
  binding result: no binding (tested: 1.3 µM input molecule concentration)

B8: bsAb from exchange reaction between anti-fluos 2/3-IgG (MHCFcRP-knob-E357K) and anti-dig 2/3-IgG (MHCFcRP-hole-K370E) (bispecific antibody, not shown: small tags and cut ends)
heavy 1: not shown
light 1: DIVMTQTPLSLSVTPGQPASISCKSSQSLVHSNGNTYLRWYLQKPGQSPKVLIYKVSNRVSGVPDRFSGSGSGTDFTLKISRVEAEDVGVYYCSQSTHVPWTFGQGTKLEIKRTVAAPSVFIFPPSDEQLKSGTASVVCLLNNFYPREAKVQWKVDNALQSGNSQESVTEQDSKDSTYSLSSTLTLSKADYEKHKVYACEVTHQGLSSPVTKSFNRGEC
heavy 2: QVQLVESGGGLVKPGGSLRLSCAASGFTFSDYAMSWIRQAPGKGLEWVSSINIGATYIYYADSVKGRFTISRDNAKNSLYLQMNSLRAEDTAVYYCARPGSPYEYDKAYYSMAYWGQGTTVTVSSASTKGPSVFPLAPSSKSTSGGTAALGCLVKDYFPEPVTVSWNSGALTSGVHTFPAVLQSSGLYSLSSVVTVPSSSLGTQTYICNVNHKPSNTKVDKKVEPKSC
light 2: not shown
notes: Exchange product as applied in the reaction mix; also called fluos dig
VEGF [1]
  relative signal intensity: 9.4%
VEGF [2]
  relative signal intensity: 6.3%
VEGF [3]
  binding result: no binding (tested: 1.3 µM input molecule concentration)

B9: bsAb from exchange reaction between anti-PDGF 2/3-IgG (MHCFcRP-knob-E357K) and anti-bio 2/3-IgG (MHCFcRP-hole-K370E) (bispecific antibody, not shown: small tags and cut ends)
heavy 1: EVQLVESGGGLVQPGGSLRLSCAASGFTFSSYWMSWVRQAPEKGLEWVSTISDGGGLTYYADSVKGRFTISRDNAKNSLYLQMNSLRAEDTAVYYCAESGGYTDWLFGYWGQGTLVTVSSASTKGPSVFPLAPSSKSTSGGTAALGCLVKDYFPEPVTVSWNSGALTSGVHTFPAVLQSSGLYSLSSVVTVPSSSLGTQTYICNVNHKPSNTKVDKKVEPKSC
light 1: not shown
heavy 2: not shown
light 2: DIQMTQSPSSLSASVGDRVTITCRASGNIHNYLSWYQQKPGKVPKLLIYSAKTLADGVPSRFSGSGSGTDFTLTISSLQPEDVATYYCQHFWSSIYTFGQGTKLEIKRTVAAPSVFIFPPSDEQLKSGTASVVCLLNNFYPREAKVQWKVDNALQSGNSQESVTEQDSKDSTYSLSSTLTLSKADYEKHKVYACEVTHQGLSSPVTKSFNRGEC
notes: Exchange product as applied in the reaction mix; also called PDGF bio
VEGF [1]
  relative signal intensity: 10.5%
VEGF [2]
  relative signal intensity: 6%
VEGF [3]
  binding result: no binding (tested: 1.3 µM input molecule concentration)

B10: bsAb from exchange reaction between anti-fluos 2/3-IgG (MHCFcRP-knob-E357K) and anti-bio 2/3-IgG (MHCFcRP-hole-K370E) (bispecific antibody)
heavy 1: not shown
light 1: DIVMTQTPLSLSVTPGQPASISCKSSQSLVHSNGNTYLRWYLQKPGQSPKVLIYKVSNRVSGVPDRFSGSGSGTDFTLKISRVEAEDVGVYYCSQSTHVPWTFGQGTKLEIKRTVAAPSVFIFPPSDEQLKSGTASVVCLLNNFYPREAKVQWKVDNALQSGNSQESVTEQDSKDSTYSLSSTLTLSKADYEKHKVYACEVTHQGLSSPVTKSFNRGEC
heavy 2: not shown
light 2: DIQMTQSPSSLSASVGDRVTITCRASGNIHNYLSWYQQKPGKVPKLLIYSAKTLADGVPSRFSGSGSGTDFTLTISSLQPEDVATYYCQHFWSSIYTFGQGTKLEIKRTVAAPSVFIFPPSDEQLKSGTASVVCLLNNFYPREAKVQWKVDNALQSGNSQESVTEQDSKDSTYSLSSTLTLSKADYEKHKVYACEVTHQGLSSPVTKSFNRGEC
notes: Exchange product as applied in the reaction mix; also called fluos bio
VEGF [1]
  relative signal intensity: 10.2%
VEGF [2]
  relative signal intensity: 6.5%
VEGF [3]
  binding result: no binding (tested: 1.3 µM input molecule concentration)

Source: patent US20200255522A1 (published 2020)
